# From US20180334480A1 (RAMOT AT TEL AVIV UNIVERSITY, published 2018)
# B1: initial SARS CoV RBM construct (residues S432-T486) displayed on fth-1 phage (other)
# chain: STGNYNYKYRYLRHGKLRPFERDISNVPFSPDGKPCTPPALNCYWPLNDYGFYTT
# Target: human ACE2 protein (Angiotensin-Converting Enzyme 2) (human, UniProt Q9BYF1 18-740)
# Assay: phage-displayed construct probed with ACE2
# Chain of human ACE2 protein (Angiotensin-Converting Enzyme 2) (Q9BYF1 18-740 limits assumed): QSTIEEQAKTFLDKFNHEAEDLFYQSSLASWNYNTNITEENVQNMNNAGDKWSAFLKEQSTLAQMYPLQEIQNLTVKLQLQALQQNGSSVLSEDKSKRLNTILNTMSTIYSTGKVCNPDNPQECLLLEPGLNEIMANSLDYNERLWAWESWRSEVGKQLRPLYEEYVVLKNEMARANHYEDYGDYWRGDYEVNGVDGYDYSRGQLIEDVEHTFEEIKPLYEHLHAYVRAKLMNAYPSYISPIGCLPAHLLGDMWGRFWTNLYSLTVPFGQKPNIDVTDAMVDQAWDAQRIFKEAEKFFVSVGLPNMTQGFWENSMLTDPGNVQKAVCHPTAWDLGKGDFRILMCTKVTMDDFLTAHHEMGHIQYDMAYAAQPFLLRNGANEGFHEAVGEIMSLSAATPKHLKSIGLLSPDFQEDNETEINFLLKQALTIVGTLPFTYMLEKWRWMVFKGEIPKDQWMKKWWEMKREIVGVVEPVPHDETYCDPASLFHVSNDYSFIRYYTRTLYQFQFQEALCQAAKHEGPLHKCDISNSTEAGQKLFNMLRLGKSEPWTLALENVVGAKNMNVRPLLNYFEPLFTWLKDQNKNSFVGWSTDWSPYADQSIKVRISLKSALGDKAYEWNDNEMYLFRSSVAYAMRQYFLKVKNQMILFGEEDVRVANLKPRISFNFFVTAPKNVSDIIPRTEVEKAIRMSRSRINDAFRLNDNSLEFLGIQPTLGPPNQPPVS
binder,measurement,value
B1,binding result,no binding
